Molecular target: RIG-5 (construct not stated; SPR) (C. elegans)
Test: SPR

Kd: 10 µM
Substance: ZIG-8 (purified; construct not stated; SV-AUC and SPR) (from UniProt G5ED00 22-251) (natural protein)

From PMC6525511
